The results in this text go back to the RNAGym collection of RNA variant scans (doi:10.1073/pnas.2313332121).

This sample holds only a part of the variants without activity.

Sequences and labels used below:
B1: TPR 5TU (parent)
chain: GGAUCUUCUCGAUCUAACAAAAAAGACAAAUCUGCCACAAAGCUUGAGAGCAUCUUCGGAUGCAGAGGCGGCAGCCUUCGGUGGCGCGAUAGCGCCAACGUUCUCAACUAUGACACGCAAAACGCGUGCUCCGUUGAAUGGAGUUUAUCAUG

The series covers variants of B1. Kind of series: polymerase ribozyme fitness, log enrichment relative to wild type (log ratio); higher = more active; in vitro selection for triplet polymerase activity. Summed up:
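Libraries of mutants in each subunit of a heterodimeric triplet polymerase ribozyme were generated by PCR and transcribed. In triplicate, each went through one in vitro selection round: annealing with biotinylated primer, partner subunit and triplets; frozen incubation at −7 °C; gel excision of extended constructs; streptavidin-bead capture; RT-PCR. Fitness, taken from Illumina sequencing of input and output libraries, is the logarithm of a genotype's enrichment over wild-type enrichment, averaged across replicates with inverse-variance weights. The logarithm is base 2, and genotypes needed ≥10 input reads and ≥1 read per output to be kept.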
Regarding GGAUCUUCUCGAUCAAACAAAAAAGACAAAUCUGCCACAAAGCUUGAGAUCAUCUUCGGAUGCAGAGGCGGCAGCCUUCGGUGGCGCGAUAGCGUCAAGGUUCUUAACUAUGACGCGCAAAACGCGUGCUCCGUUGAAUGGAGUUUAUCCUG [U15A G50U C95U C99G C105U A115G A150C], the “polymerase ribozyme fitness (log ratio)” value is at most -4.2. The figure for GGAUCUUCUCGAUCAAACAAAAAAGACAAAUCUGCCACAAAGCUUGAGAGCAUCUUCGGAUGCAGAGGCGGCAUCCUUGGGUGGCGCGAUAGCGCCAACGUUCUCAACUAUGACACGCAAAACGCGUGCUCCGUUGAAUGGAGUUUAUCAUG [U15A G74U C79G] is at most -4.2; for GGAUCUUCUCGAUCCCACAAAAAAGACAAAUCUGCCACAAAGCUUGAGAGCAUCUUCGGAUGCAGAGGCGGCAGCCUUCGGUGGUGCGAUAGCGCCAACGUUCUCAACUAUGACACGAAAAACGCGUGCUCCGUUGAAUGGAGUUUAUCAUG [U15C A16C C85U C118A] it is -2.79; for GGAUCUUCUCGAUCAAACAAAAAAGACAAAUCUGCCACAAAGCUUGAGAUCAUCUUCGGAUGCAGAGGCGGCAGCCUUCGGUGGCACGAUAGCGCCAACGUUCUCAACUAUGAUACGCAAAACGCGUGCUCCGUUGAAUGGAGUUUAUCAUG [U15A G50U G86A C114U] it is -3.13.

For GGAUCUUCUCGAUCCAUCAAAAAAGACAAAUCUGCCACAAAGCUUGAGAGCAUCUUCGGGUCCAGAGGCGGCAGCCUUCGGUGGCGCGAUUGCGCCAACGUUCUCAACUAUGACACGCAAAACGCGUGCUCCGUUGAAUGGAGUUUAUCAUG [U15C A17U A60G G62C A91U], the “polymerase ribozyme fitness (log ratio)” value was at most -4.2. Next, GGAUCUUCUCGAUCAAACAAAAAAGACAAAUCUGCCACAAAGCUUGAGAGCAUCUUCGUAUGCAGAGGCGGCAGCCUUGGGUGGCGCGAUAGAGCCAACGUUCUCAACUAUGACACGCAAAACGCGUGCUCCGAUGAAUGGAGUUUAUCAUG [U15A G59U C79G C93A U134A]: at most -4.2; GGAUCUUCUCGAUCAAACAAAAAAGACAAAUCUGCCACAAAGCUUGAGAGCAUCUUCGGAUGCAGAGGCGGCAGCCUUCGGUGGCGCGAUAGCGCCAACGUUCUCAACUAUGACACGCAAAACGCGUGCUCCGUUGAAUGGAGUCUAUCAUG [U15A U145C]: 0.0727; GGAUCUUCUCGAUCAAACAAAAAAGACAAAUCUGCCACAAAGCUUGAGAGCAUCUUCGGAUGCAGAGGCGGCAGCCUUCGGUGGCGCGAUAGCACCAACGUUCUCAACUAUGACACGCAAAACGCGUGCUCCGUUGAAUGGAGUUUAUCAUG [U15A G94A]: -0.258. In the case of GGAUCUUCUCGAUCCAACCAAAAAGACAAAUCUGCCACAAAGCUUGAGAGCAUCUUCGGAUGCAGAGGCGGCAGCCUUCGGUGGUGUGAUAGCGCCAACGUUCUCAACUAUGACACGCAAAACGCGUGCUCCGUUGAAUGGAGUUUAUCAUG [U15C A19C C85U C87U], the “polymerase ribozyme fitness (log ratio)” value is 0.246. Regarding GGAUCUUCUCGAUCCAACCAAAAAGACAAAUCUGCCACAAAGCUUGAGAGCAUCUUCGGAUGCAGAGGCGGCAGCCUUCGGUGGCGCGAUUGCGCCAACGUUCUCAACUAUGACACGCAAAACGCGUGCUCCGUUGAAUGGAGUUUAUCAUG [U15C A19C A91U], the “polymerase ribozyme fitness (log ratio)” value was -3.68. In the case of GGAUCUUCUCGAUCAAACAAAAAAAACAAAUCUGCCACAAACCUUGAGAGCAUCUUCGGAUGCAGAGGCGGCAGCCUUAGGUGGCGCGAUAGCGCCAACGUUCUCAACUAUGACACGCAAAACGCGUGCUCCGUUGAAUGGAGUUUAUCAUG [U15A G25A G42C C79A], the “polymerase ribozyme fitness (log ratio)” value is at most -4.2. The figure for GGAUCUUCUCGAUCAAACAAAAAAGACAAAUCUGCCACAAAGCUUGAGAUCAUCUUCGGAUGCAGAGGCGGCAGCCUUCGGUGGCGCGAUAGCGGCAACGUUCUCAACUAUGACACGCAAAACGCGUGCUCGGUUGAAUGGAGUUUAUCAUG [U15A G50U C95G C132G] is at most -4.2; for GGAUCUUCUCGAUCCAACGAAAAAGACAAAUCUGCCACAAAGCUUGAGAGCAUCUUCGGAUGCAGAGGGGGCAGCAUUGGGUGUCGCGAUAGCGACAACGUUCUCAACUUUGACACGCAAAACGCGUGCUCCGUUGAAUGGAGUUUAUCAUG [U15C A19G C69G C76A C79G G84U C95A A110U] it is at most -4.2; for GGAUCUUCUCGAUCAAACAAAAAACACACAUCUGCCACAAAGCUUGACAGCAUCUUCGGAUGCUGAGGCGGCAGCCUUCGGUGGCGCGAUAGUGACAACGUUCUCAACUAUGACACGCAAAACGCGUGCUCCGUUGAAUGGAGUUUAUAAUG [U15A G25C A29C G48C A64U C93U C95A C149A] it is at most -4.2. On to GGAUCUUCUCGAUCCAACAGUAAAGACAAAUCUGCCACUAAGCUUGAGAGCAUCUUCGGAUGCAGAGGCGGCAGCUUUCGGUGGAGCGAUAGCGCCAACGUUAUCAAUUAUGACACGCAAAACGCGUGCUCCGUUGAAUGGAGUUUAUCAUG [U15C A20G A21U A39U C76U C85A C103A C108U], for which the “polymerase ribozyme fitness (log ratio)” value was at most -4.2.

For GGAUCUUCUCGAUCCAACAAAAAAGACAAAUCUGCCACAAAGCUUGAGAGCAUCUUCGGAUGCAGAGGCGGCAGCCUUCGGUGGCGCGAUAGCGCCAACGUUCUCAACUAUGACACGCAAAACGCGUGCUCCGUUGAAUGGAGUUUAUCAUG [U15C], the “polymerase ribozyme fitness (log ratio)” value is 0.917. GGAUCUUCUCGAUCAAACAAAAAAGACAAAUCUGCCACAAAGCUUGACAGCAUCUUCGGAUGCAGAGGCGGCAGCCUUCGGUUGCGCGAUAGCGCCAACGUUCUCAACUAUGACACGCAAAACGCGUGCUCCGUUGAAUGGAGUUUAUCAUG [U15A G48C G83U]: the “polymerase ribozyme fitness (log ratio)” value was -2.41. Next, GGAUCUUCUCGAUCAAACAAAAAAGACAAAUCUGCCACAAAGCUUGAGAGCAUCAUCGGAUGCAGAGGCGGCAGCCUUCGGUGGCGCCAUAGCGCCAACGUUCUCAACUAUGACACGCAAAACGCGUGCUCCGUUGAAUGGAGUGUAUCAUG [U15A U55A G88C U145G]: -3.86; GGAUCUUCUCGAUCCGACAAAAAAGACAAAUCUGCCACAAAGCUUGAGAGCAUCUUCGUGUGCAGAGGCGGCAGCCUUCGGUGGCGCGAUAACGCCAACGUUCUCAACUAUGACAUGCAAAACGCGUGCUCCGUUGAAUGGAGUUUAUCAUG [U15C A16G G59U A60G G92A C116U]: -0.967.
